Assay results published in publication doi:10.1101/2025.09.09.675266.
“And” between values parts separate entries of the source, which are not always exact repeats. Equal entries are not always repeated. Where two headings read alike, the source gives them in different places.

What was measured:
[1] = target: RSV IN (1-278 aa) (Rous sarcoma virus (Prague A))
[2] = target: RSV IN (1-278 aa) (Rous sarcoma virus (Prague A)); experiment: SEC
[3] = target: RSV IN (1-269) (Rous sarcoma virus (Prague A)); experiment: SEC

| Substance | stoichiometry N [1] | stoichiometry N [2] | stoichiometry N [3] |
| --- | --- | --- | --- |
| RSV IN (1-278 aa) (domain or fragment) | 2 | 4 and 8 |  |
| RSV IN (1-269) (domain or fragment) |  |  | 4 |
